Columns and labels:
Test in all cases: cell-based or functional assay
[1] = target: E protein of wild-type DEN-1 16007 virus (dengue-1 virus, strain 16007) (UniProt P27909)
[2] = target: E protein of wild-type DEN-3 16562 virus (dengue-3 virus, strain 16562) (UniProt P27915)
[3] = target: E protein of wild-type DEN-4 1036 virus (dengue-4 virus, strain 1036) (UniProt P09866)

Q: How did the Reciprocal serum dilution-plaque reduction neutralization titers (50% endpoint) (reciprocal dilution) [1] turn out when “monoclonal antibody 3H5 (specific for DEN-2 E protein)” was run?
A: 20

Q: What about the Reciprocal serum dilution-plaque reduction neutralization titers (50% endpoint) (reciprocal dilution) [2] of the same substance?
A: 40

Q: And the Reciprocal serum dilution-plaque reduction neutralization titers (50% endpoint) (reciprocal dilution) [3]?
A: < 20
